Laboratory results: patent US20220227870A1 (Innovent, published 2022)
Where two headings read alike, the source gives them in different places. Blank lines part the entries; values can stand above or below the binder they belong to.

How the values were obtained:
[1] = target: T1, human 4-1BB expressed on the surface of cells (CHO-S-4-1BB cells) (human, UniProt Q07011 24-255); assay: FACS on CHO-S cells overexpressing human 4-1BB, PE-conjugated anti-human Fc detection, MFI
T1 construct: whole, on cells; also called CHO-S cells overexpressing 4-1BB; CD137

[2] = target: T2, human CD47 expressed on the surface of cells (CHO-S-CD47 cells) (human, UniProt Q08722 19-323); assay: FACS on CHO-S cells overexpressing human CD47, PE-conjugated anti-human Fc detection, MFI
T2 construct: whole, on cells; also called CHO-S cells overexpressing CD47; CHO-CD47
Description: (§1) The cell suspension was centrifuged at 400 g on a centrifuge for 5 minutes to remove the cell medium. […] The cell suspension was centrifuged at 400 g for 5 minutes, and then the supernatant was removed, and the cells were washed with PBS to remove the unbound antibodies. The obtained cell suspension was centrifuged at 400 g for 5 minutes to remove PBS. 100 μL of the solution of PE-conjugated anti-human Fc antibody (Jackson Immuno Research) diluted at a ratio of 1:200 was added to each well, and the cells were incubated in the dark on the ice for 30 minutes. Then the cell suspension was centrifuged at 400 g for 5 minutes and the supernatant was removed. The cells were washed with PBS to remove the unbound PE-conjugated anti-human Fc antibody. The cells were resuspended with 100 μL of PBS, and the binding of the antibodies to cells was assayed by FACS.

h CD47 (Acrobiosystems) = target: T3, h CD47 (Acrobiosystems) (human, UniProt Q08722 19-139); assay: ForteBio Octet BLI; antibody loaded on AHC sensor, h CD47 100 nM in solution
T3 construct: Bought soluble antigen; also called CD47 protein in solution
Description: (§2) The anti-human IgG Fc biosensor AHC was immersed in each well containing the antibody solution, and immersed at room temperature for 600 seconds to load the samples. The sensor was then washed in SD buffer until it returned to the baseline, and then immersed in a well containing 100 μL of the antigen solution to monitor the association of the antibody with the antigen. The sensor was then transferred to a well containing 100 ul of SD buffer to monitor the antibody dissociation. The rotation speed was 400 rpm and the temperature was 30° C. The background-corrected association and dissociation curves were plotted by the Octet analysis software (ForteBio) to generate the association (k_{∞}) rate constant and dissociation (kdis) rate constant, which are then used to calculate the equilibrium dissociation constant (KD).

[3] = target: T4, rh PD-L1 (Acrobiosystems) (human, UniProt Q9NZQ7 19-238); assay: ForteBio Octet BLI; antibody loaded on AHC sensor, antigen 100 nM in solution; note: N.B: Not detectable
T4 construct: Bought soluble antigen; also called PD-L1 protein in solution
Description: as §2

[4] = target: T5, tumor cells H292 (ATCC), co-incubated with human red blood cells; assay: flow cytometry; CFSE-labelled H292 cells co-incubated 1:20 with human red blood cells; antibody 0.014 nM
T5 construct: also called H292 cells
Description: (§3) The mixture was then gently added to 4 tubes each with 12.5 ml of FiColl (Thermo). The samples were centrifuged at 400 g for 30 min with zero deceleration. The upper serum and PBMC were removed to obtain red blood cells in the lowest layer.
(§4) Tumor cells H292 (ATCC) were fluorescently labeled with fluorochrome CFSE according to the instructions of CellTrace™ CFSE Cell Proliferation Kit (Invitrogen, catalog number: C34554). The labeled tumor cells were co-cultured with the aforementioned isolated human red blood cells at a ratio of 1:20 in terms of cell number, and meanwhile, tested antibody solutions of different concentrations were added. The cells were incubated at 4° C. for 30 min. […] The cells were washed at least twice with PBS and analyzed by flow cytometry.

[5] = target: T5, tumor cells H292 (ATCC), co-incubated …; assay: flow cytometry; CFSE-labelled H292 cells co-incubated 1:20 with human red blood cells; antibody 0.041 nM
Description: as §4

[6] = target: T5, tumor cells H292 (ATCC), co-incubated …; assay: flow cytometry; CFSE-labelled H292 cells co-incubated 1:20 with human red blood cells; antibody 0.123 nM
Description: as §4

[7] = target: T5, tumor cells H292 (ATCC), co-incubated …; assay: flow cytometry; CFSE-labelled H292 cells co-incubated 1:20 with human red blood cells; antibody 0.370 nM
Description: as §3, §4

[8] = target: T5, tumor cells H292 (ATCC), co-incubated …; assay: flow cytometry; CFSE-labelled H292 cells co-incubated 1:20 with human red blood cells; antibody 1.111 nM
Description: as §4

[9] = target: T5, tumor cells H292 (ATCC), co-incubated …; assay: flow cytometry; CFSE-labelled H292 cells co-incubated 1:20 with human red blood cells; antibody 3.333 nM
Description: as §3, §4

[10] = target: T5, tumor cells H292 (ATCC), co-incubated …; assay: flow cytometry; CFSE-labelled H292 cells co-incubated 1:20 with human red blood cells; antibody 10.000 nM
Description: as §3, §4

[11] = target: T6, human LAG-3 expressed on the surface of cells (293-LAG-3 cells) (human, UniProt P18627 23-525); assay: FACS on HEK293 cells overexpressing human LAG-3, PE-conjugated anti-human Fc detection, MFI
T6 construct: whole, on cells; also called HEK293 cells overexpressing LAG-3; CD223
T6 sequence (looked up): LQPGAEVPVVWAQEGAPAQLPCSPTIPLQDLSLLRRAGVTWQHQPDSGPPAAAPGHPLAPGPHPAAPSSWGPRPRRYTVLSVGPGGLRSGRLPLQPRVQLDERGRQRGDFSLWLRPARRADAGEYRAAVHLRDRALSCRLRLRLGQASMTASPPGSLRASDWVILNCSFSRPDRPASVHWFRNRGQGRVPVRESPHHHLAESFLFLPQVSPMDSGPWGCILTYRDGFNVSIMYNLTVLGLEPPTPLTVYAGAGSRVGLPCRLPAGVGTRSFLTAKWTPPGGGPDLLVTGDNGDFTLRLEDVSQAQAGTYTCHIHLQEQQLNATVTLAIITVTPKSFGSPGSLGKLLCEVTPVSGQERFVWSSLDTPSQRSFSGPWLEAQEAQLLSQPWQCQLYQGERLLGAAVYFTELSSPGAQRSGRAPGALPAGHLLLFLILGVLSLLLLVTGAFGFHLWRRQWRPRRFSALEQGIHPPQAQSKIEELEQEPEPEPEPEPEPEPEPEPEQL

[12] = target: T2, human CD47 expressed on the surface of …; assay: FACS on CHO-S cells overexpressing human CD47; antibody sample of day 0
[13] = target: T2, human CD47 expressed on the surface of …; assay: FACS on CHO-S cells overexpressing human CD47; antibody sample after 30 days at 40 C
Description: as §1

[14] = target: T7, human PD-L1 expressed on the surface of cells (CHO-S-PD-L1 cells) (human, UniProt Q9NZQ7 19-290); assay: FACS on CHO-S cells overexpressing human PD-L1, PE-conjugated anti-human Fc detection, MFI
T7 construct: whole, on cells; also called CHO-S cells overexpressing PD-L1; PD-L1 aAPC/CHO-K1 cells
Description: (§5) In short, CHO-S-PD-L1 cells were counted, and the cell suspension was diluted to 1×10⁶ cells/ml with cell medium, and then added to a U-bottom 96-well plate at 100 μl/well. The cell suspension was centrifuged at 400 g on a centrifuge for 5 minutes to remove the cell medium. […] The cell suspension was centrifuged at 400 g for 5 minutes, and then the supernatant was removed, and the cells were washed with PBS to remove the unbound antibodies. The obtained cell suspension was centrifuged at 400 g for 5 min to remove PBS. 100 μl of the solution of PE-conjugated anti-human Fc antibody (Jackson Immuno Research) diluted at a ratio of 1:200 was added to each well, and the cells were incubated in the dark on the ice for 30 min. Then the cell suspension was centrifuged at 400 g for 5 min and the supernatant was removed. The cells were washed with PBS to remove the unbound PE-conjugated anti-human Fc antibody. The cells were resuspended with 100 μl of PBS, and the binding of the antibodies to cells was assayed by FACS.

[15] = target: T7, human PD-L1 expressed on the surface of …; assay: as above; remark: listed apart in the source
Description: as §5

T1 sequence (Q07011 24-255): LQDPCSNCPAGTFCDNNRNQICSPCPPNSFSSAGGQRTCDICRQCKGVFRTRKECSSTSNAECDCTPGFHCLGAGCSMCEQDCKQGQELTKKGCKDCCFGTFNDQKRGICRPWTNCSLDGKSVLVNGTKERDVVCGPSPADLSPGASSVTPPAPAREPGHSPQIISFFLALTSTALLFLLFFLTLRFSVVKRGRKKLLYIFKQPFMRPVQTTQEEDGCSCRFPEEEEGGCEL

EC50 (read off the curve) [1]: ~1 nM
B1: anti-4-1BB antibody BMS-663513 (antibody, V domains shown)
VH: QVQLQQWGAGLLKPSETLSLTCAVYGGSFSGYYWSWIRQSPEKGLEWIGEINHGGYVTYNPSLESRVTISVDTSKNQFSLKLSSVTAADTAVYYCARDYGPGNYDWYFDLWGRGTLVTVSS
VL: EIVLTQSPATLSLSPGERATLSCRASQSVSSYLAWYQQKPGQAPRLLIYDASNRATGIPARFSGSGSGTDFTLTISSLEPEDFAVYYCQQRSNWPPALTFGGGTKVEIK
notes: also called parent antibody (anti-4-1BB)

binding result [2]: no binding (tested: about 300 nM)
B2: IgG1 Control (antibody, V domains shown)
VH: EVRLLESGGGLVQPGGSLRLSCAASGFTFSNYAMGWVRQAPGKGLEWVSAISGSGGSTYYADSVKGRFTTSRDDSKNALYLQMNSLRAEDTAVYYCARGGPGWYAADVWGQGTTVTVSS
VL: DIQMTQSPSSLSASVGDRVTITCRASQSISSYLNWYQQKPGKAPKLLIYAASSLQSGVPSRFSGSGSGTDFTLTISSLQPEDFATYYCQQADLPAFAFGGGTKVEIKR
notes: also called IgG1 negative control antibody

Kd (h CD47 (Acrobiosystems)): 1.07 nM | koff (h CD47 (Acrobiosystems)): 0.00128 s⁻¹ | kon (h CD47 (Acrobiosystems)): 1.19e+06 M⁻¹ s⁻¹ | EC50 (read off the curve) [12]: ~3 nM | EC50 (read off the curve) [2]: ~2 nM | proportion of antibody binding to H292 cells [4]: 1.41% | proportion of antibody binding to H292 cells [5]: 46.3% | proportion of antibody binding to H292 cells [6]: 83.2% | proportion of antibody binding to H292 cells [7]: 61.6% | proportion of antibody binding to H292 cells [8]: 41% | proportion of antibody binding to H292 cells [9]: 13.2% | proportion of antibody binding to H292 cells [10]: 11.3%
B7: anti-CD47/PD-L1 bispecific antibody Kh2NF-PC-NL (bispecific antibody, human IgG1, kappa, L234A L235A)
heavy: not shown
light: DIQMTQSPSSVSASVGDRVTITCRASQGISRWLAWYQQKPGKAPKLLIYAASSLQSGVPSRFSGSGSGTDFTLTISSLQPEDFATYYCQQTVSFPITFGGGTKVEIKRTVAAPSVFIFPPSDEQLKSGTASVVCLLNNFYPREAKVQWKVDNALQSGNSQESVTEQDSKDSTYSLSSTLTLSKADYEKHKVYACEVTHQGLSSPVTKSFNRGEC
chain: QVQLQESGGGLVQPGGSLRLSCAASAYTISRNSMGWFRQAPGKGLEGVAAIESDGSTSYSDSVKGRFTISLDNSKNTLYLEMNSLRAEDTAVYYCAAPKVGLGPRTALGHLAFMTLPALNYWGQGTLVTVSSQVQLQESGGGLVQPGGSLRLSCAASAYTISRNSMGWFRQAPGKGLEGVAAIESDGSTSYSDSVKGRFTISLDNSKNTLYLEMNSLRAEDTAVYYCAAPKVGLGPRTALGHLAFMTLPALNYWGQGTLVTVSSDKTHTCPPCPAPEAAGGPSVFLFPPKPKDTLMISRTPEVTCVVVDVSHEDPEVKFNWYVDGVEVHNAKTKPREEQYNSTYRVVSVLTVLHQDWLNGKEYKCKVSNKALPAPIEKTISKAKGQPREPQVCTLPPSRDELTKNQVSLSCAVKGFYPSDIAVEWESNGQPENNYKTTPPVLDSDGSFFLVSKLTVDKSRWQQGNVFSCSVMHEALHNHYTQKSLSLSPG
notes: Triple-chain antibody without a linker between the two VHH; Fc with LALA and knob-in-hole mutations

EC50 (read off the curve) [15]: ~1 nM | EC50 (read off the curve) [11]: ~1 nM
B8: anti-LAG-3/PD-L1 bispecific antibody Kh2NF-PL (bispecific antibody, human IgG1, kappa, L234A L235A)
heavy: not shown
light: not shown
chain: B7 chain
notes: Triple-chain antibody; Fc with LALA and knob-in-hole mutations

Further lines, the binder ahead of its results:

B3: anti-CD47 antibody ADI-29341 (antibody, V domains shown)
VH: QVQLQESGPGLVKPSETLSLTCTVSGGSIEHYYWSWIRQPPGKGLEWIGYIYYSGSTNYNPSLKSRVTISVDTSKNQFSLKLSSVTAADTAVYYCARGKTGSAAWGQGTLVTVSS
VL: DIQMTQSPSSVSASVGDRVTITCRASQGISRWLAWYQQKPGKAPKLLIYAASSLQSGVPSRFSGSGSGTDFTLTISSLQPEDFATYYCQQTVSFPITFGGGTKVEIK
notes: captured on an anti-human IgG Fc sensor; also called parent antibody (anti-CD47)
Kd (h CD47 (Acrobiosystems)): 2.32 nM | koff (h CD47 (Acrobiosystems)): 0.0018 s⁻¹ | kon (h CD47 (Acrobiosystems)): 774000 M⁻¹ s⁻¹ | EC50 (read off the curve) [2]: ~1 nM | binding result [3]: no binding (tested: 100 nM) | proportion of antibody binding to H292 cells [4]: 3.59% | proportion of antibody binding to H292 cells [5]: 17.7% | proportion of antibody binding to H292 cells [6]: 5.74% | proportion of antibody binding to H292 cells [7]: 14.4% | proportion of antibody binding to H292 cells [8]: 6.15% | proportion of antibody binding to H292 cells [9]: 8.42% | proportion of antibody binding to H292 cells [10]: 3.9%

B4: anti-LAG-3 antibody ADI-31853 (antibody, V domains shown)
VH: QLQLQESGPGLVKPSETLSLTCTVSGGSIYSESYYWGWIRQPPGKGLEWIGSIVYSGYTYYNPSLKSRVTISVDTSKNQFSLKLSSVTAADTAVYYCARVRTWDAAFDIWGQGTMVTVSS
VL: DIQMTQSPSSLSASVGDRVTITCQASQDISNYLNWYQQKPGKAPKLLIYDASNLETGVPSRFSGSGSGTDFTFTISSLQPEDIATYYCQQVLELPPWTFGGGTKVEIK
notes: also called parent antibody (anti-LAG-3)
EC50 (read off the curve) [11]: ~0.5 nM

B5: anti-CD47/PD-L1 bispecific antibody Kh2NF-PC (bispecific antibody, human IgG1, kappa, L234A L235A)
heavy: not shown
light: B7 light
chain: QVQLQESGGGLVQPGGSLRLSCAASAYTISRNSMGWFRQAPGKGLEGVAAIESDGSTSYSDSVKGRFTISLDNSKNTLYLEMNSLRAEDTAVYYCAAPKVGLGPRTALGHLAFMTLPALNYWGQGTLVTVSSGGGGSGGGGSGGGGSGGGGSQVQLQESGGGLVQPGGSLRLSCAASAYTISRNSMGWFRQAPGKGLEGVAAIESDGSTSYSDSVKGRFTISLDNSKNTLYLEMNSLRAEDTAVYYCAAPKVGLGPRTALGHLAFMTLPALNYWGQGTLVTVSSDKTHTCPPCPAPEAAGGPSVFLFPPKPKDTLMISRTPEVTCVVVDVSHEDPEVKFNWYVDGVEVHNAKTKPREEQYNSTYRVVSVLTVLHQDWLNGKEYKCKVSNKALPAPIEKTISKAKGQPREPQVCTLPPSRDELTKNQVSLSCAVKGFYPSDIAVEWESNGQPENNYKTTPPVLDSDGSFFLVSKLTVDKSRWQQGNVFSCSVMHEALHNHYTQKSLSLSPG
notes: Triple-chain antibody (1+2 format)
Kd (h CD47 (Acrobiosystems)): 1.31 nM | koff (h CD47 (Acrobiosystems)): 0.00155 s⁻¹ | kon (h CD47 (Acrobiosystems)): 1.18e+06 M⁻¹ s⁻¹ | EC50 (read off the curve) [12]: ~2 nM | EC50 (read off the curve) [13]: ~3 nM | EC50 (read off the curve) [2]: ~2 nM | proportion of antibody binding to H292 cells [4]: 14.9% | proportion of antibody binding to H292 cells [5]: 82% | proportion of antibody binding to H292 cells [6]: 88.5% | proportion of antibody binding to H292 cells [7]: 44.5% | proportion of antibody binding to H292 cells [8]: 23% | proportion of antibody binding to H292 cells [9]: 12.1% | proportion of antibody binding to H292 cells [10]: 12.5%

B6: anti-4-1BB/PD-L1 bispecific antibody Kh2NF-P4 (bispecific antibody, human IgG1, kappa, L234A L235A)
heavy: not shown
light: not shown
chain: B5 chain
notes: as for B8
EC50 (read off the curve) [1]: ~5 nM | EC50 (read off the curve) [14]: ~2 nM
